Reference: patent US20130171184A1

Biological target: Neisseria meningitidis Hsf (Msf) of strain H44/76, expressed on meningococci (Neisseria meningitidis strain H44/76) (UniProt Q7DDJ2)
Test: ELISA, bacteria preincubated with 25 µg/ml peptide, binding to 2.5 µg/ml immobilised aVn

Sequence of Neisseria meningitidis Hsf (Msf) of strain H44/76, expressed on meningococci (Neisseria meningitidis strain H44/76) (Q7DDJ2 52-591): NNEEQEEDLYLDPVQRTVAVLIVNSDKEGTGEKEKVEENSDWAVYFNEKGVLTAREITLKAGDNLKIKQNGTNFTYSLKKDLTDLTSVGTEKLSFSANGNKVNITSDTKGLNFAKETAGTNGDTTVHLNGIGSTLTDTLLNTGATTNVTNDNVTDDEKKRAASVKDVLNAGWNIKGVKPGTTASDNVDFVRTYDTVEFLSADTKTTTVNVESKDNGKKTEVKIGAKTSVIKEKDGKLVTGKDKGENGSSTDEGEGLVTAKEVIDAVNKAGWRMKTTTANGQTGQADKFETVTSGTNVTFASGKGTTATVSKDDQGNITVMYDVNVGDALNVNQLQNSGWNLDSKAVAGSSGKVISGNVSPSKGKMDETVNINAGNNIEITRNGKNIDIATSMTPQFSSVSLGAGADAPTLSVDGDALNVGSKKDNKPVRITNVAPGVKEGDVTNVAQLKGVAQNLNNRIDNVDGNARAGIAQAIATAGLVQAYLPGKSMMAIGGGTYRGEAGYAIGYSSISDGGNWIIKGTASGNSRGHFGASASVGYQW

Substance: biotinylated sulphated vitronectin peptide VA-26S (amino acids 43-68)
- reduction in Msf binding to aVn: 30%
